# Numbering of substitutions follows the chain as printed. Numbers in names are those of the source.
# T1: human IL-2Rαβγc (on Kit225-STAT5 reporter cells, NK-92 cells, primary Treg cells) (human, UniProt P01589 22-272; P14784 27-551; P31785 23-369)
# T1 sequence (looked up) 1: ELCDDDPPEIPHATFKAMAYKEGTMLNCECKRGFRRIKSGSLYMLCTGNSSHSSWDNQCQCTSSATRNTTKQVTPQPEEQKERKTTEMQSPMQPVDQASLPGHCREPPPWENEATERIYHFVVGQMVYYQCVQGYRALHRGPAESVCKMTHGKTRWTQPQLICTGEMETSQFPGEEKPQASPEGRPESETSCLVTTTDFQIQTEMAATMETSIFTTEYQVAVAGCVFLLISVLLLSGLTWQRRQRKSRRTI
# T1 sequence (looked up) 2: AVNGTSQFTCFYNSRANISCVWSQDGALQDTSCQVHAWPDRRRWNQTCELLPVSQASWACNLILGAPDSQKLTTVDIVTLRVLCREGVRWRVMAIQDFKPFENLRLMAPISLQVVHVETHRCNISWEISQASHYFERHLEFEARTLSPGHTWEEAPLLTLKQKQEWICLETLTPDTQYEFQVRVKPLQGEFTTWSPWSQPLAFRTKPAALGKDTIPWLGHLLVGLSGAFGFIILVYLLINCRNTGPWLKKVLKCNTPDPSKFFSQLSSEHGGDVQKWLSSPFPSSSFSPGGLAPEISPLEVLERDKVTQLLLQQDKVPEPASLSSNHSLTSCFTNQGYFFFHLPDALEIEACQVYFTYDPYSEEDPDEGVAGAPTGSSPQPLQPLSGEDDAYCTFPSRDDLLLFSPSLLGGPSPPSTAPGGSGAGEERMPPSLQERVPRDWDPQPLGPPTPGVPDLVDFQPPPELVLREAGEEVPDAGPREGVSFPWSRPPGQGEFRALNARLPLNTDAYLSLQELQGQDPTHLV
# T1 sequence (looked up) 3: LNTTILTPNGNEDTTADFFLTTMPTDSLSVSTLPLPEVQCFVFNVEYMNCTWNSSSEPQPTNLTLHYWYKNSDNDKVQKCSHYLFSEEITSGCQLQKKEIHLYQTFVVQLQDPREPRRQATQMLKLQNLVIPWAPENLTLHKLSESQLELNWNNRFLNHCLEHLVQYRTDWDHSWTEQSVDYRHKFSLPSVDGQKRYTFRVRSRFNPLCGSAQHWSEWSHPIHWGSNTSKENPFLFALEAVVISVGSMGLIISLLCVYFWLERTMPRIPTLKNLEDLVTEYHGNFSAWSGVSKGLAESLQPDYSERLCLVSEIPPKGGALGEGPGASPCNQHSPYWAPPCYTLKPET
# T2: human IL-2Rβγc (on DERL-7 cells, U2OS IL2RB/IL2RG cells, CD25 knockout Kit225-STAT5 cells, primary CD8+ CTLs) (human, UniProt P14784 27-551; P31785 23-369)
# T2 sequence (looked up) 1: T1 sequence (looked up) 2
# T2 sequence (looked up) 2: T1 sequence (looked up) 3
# T3: mouse IL-2Rαβγc (on CTLL2-STAT5 reporter cells) (mouse, UniProt P01590 22-268; P16297 27-539; P34902 23-369)
# T3 sequence (looked up) 1: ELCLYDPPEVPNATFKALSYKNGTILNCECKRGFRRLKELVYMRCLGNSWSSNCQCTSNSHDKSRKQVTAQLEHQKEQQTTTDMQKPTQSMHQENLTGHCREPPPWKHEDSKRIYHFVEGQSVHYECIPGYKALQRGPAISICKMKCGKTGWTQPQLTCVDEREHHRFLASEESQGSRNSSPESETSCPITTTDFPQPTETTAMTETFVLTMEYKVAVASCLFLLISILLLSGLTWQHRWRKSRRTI
# T3 sequence (looked up) 2: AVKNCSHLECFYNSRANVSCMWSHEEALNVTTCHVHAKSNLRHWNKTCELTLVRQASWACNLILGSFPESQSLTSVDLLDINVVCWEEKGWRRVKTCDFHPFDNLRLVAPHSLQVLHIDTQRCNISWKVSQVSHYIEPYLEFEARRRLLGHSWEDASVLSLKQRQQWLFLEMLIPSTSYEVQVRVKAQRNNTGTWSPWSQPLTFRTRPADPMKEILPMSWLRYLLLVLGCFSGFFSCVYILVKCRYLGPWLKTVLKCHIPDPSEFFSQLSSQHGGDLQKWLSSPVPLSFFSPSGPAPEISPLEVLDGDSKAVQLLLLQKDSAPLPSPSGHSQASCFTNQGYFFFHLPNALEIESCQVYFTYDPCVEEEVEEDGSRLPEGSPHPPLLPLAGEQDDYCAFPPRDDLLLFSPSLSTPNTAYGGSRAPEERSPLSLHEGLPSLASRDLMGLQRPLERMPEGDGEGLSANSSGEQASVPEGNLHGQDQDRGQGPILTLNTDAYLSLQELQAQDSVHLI
# T3 sequence (looked up) 3: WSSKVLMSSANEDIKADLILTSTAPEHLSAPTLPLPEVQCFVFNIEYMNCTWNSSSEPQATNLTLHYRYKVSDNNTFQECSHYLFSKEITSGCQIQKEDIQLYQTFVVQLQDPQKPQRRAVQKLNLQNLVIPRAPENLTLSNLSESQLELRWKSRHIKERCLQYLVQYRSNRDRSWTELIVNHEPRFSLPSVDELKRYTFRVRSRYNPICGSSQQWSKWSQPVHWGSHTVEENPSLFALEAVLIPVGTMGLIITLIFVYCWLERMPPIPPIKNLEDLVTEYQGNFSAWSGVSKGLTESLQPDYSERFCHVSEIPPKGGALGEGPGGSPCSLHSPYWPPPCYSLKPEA
# T4: Human IL-2Rβ (Table 7B) (human, UniProt P14784 27-239, limits assumed)
# T4 sequence (looked up): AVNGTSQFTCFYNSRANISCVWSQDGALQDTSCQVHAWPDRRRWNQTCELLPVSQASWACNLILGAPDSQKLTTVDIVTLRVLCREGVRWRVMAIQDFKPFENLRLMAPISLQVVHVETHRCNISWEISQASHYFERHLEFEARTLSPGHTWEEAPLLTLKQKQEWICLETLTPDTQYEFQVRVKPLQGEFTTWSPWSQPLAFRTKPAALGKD
# B1: Ald-6HIS_T40D/F41K (ligand)
# chain: PTSSSTKKTQLQLEHLLLDLQMILNGINNYKNPKLTRMLDKKFYMPKKATELKHLQCLEEELKPLEEVLNLAQSKNFHLRPRDLISNINVIVLELKGSETTFMCEYADETATIVEFLNRWITFSQSIISTLTGGSHHHHHH
# B2: Ald-6HIS_T40D/E60T (ligand)
# chain: B1 chain with K41F, E60T
# B3: Ald-6HIS_R37A/F41K/E60T (ligand)
# chain: B1 chain with R37A, D40T, E60T
# B4: Ald-6HIS_R37A/T40D (ligand)
# chain: B1 chain with R37A, K41F
# B5: Ald-6HIS_R37A/F41K (ligand)
# chain: B1 chain with R37A, D40T
# B6: Ald-6HIS_F41K/E60T (ligand)
# chain: B1 chain with D40T, E60T
# B7: Ald-6HIS_R37A/T40D/F41K (ligand)
# chain: B1 chain with R37A
# B8: Ald-6HIS_T40D/F41K/E60T (ligand)
# chain: B1 chain with E60T
# B9: Ald-6HIS_R37A/E60T (ligand)
# chain: B1 chain with R37A, D40T, K41F, E60T
# B10: Ald-6HIS_R37A/T40D/E60T (ligand)
# chain: B1 chain with R37A, K41F, E60T
# B11: Ald-6HIS_E61S/P64A/Y106A (ligand)
# chain: B1 chain with D40T, K41F, E61S, P64A, Y106A
# B12: Ald_F41/Y44A/l71G* (ligand)
# chain: B1 chain with D40T, K41A, Y44A, L71G
# Target: T1, human IL-2Rαβγc (on Kit225-STAT5 …)
# Assay: cell-based or functional assay
Binder,NK-92 EC50 Fold Change,NK-92 cell assay EC50
B1,2.81 fold,0.02 nM
B2,4.61 fold,0.032 nM
B3,9.03 fold,0.063 nM
B4,2.06 fold,0.014 nM
B5,7.31 fold,0.051 nM
B6,11.4 fold,0.079 nM
B7,3.73 fold,0.026 nM
B8,9.09 fold,0.063 nM
B9,4.46 fold,0.031 nM
B10,11 fold,0.076 nM

# Target: T2, human IL-2Rβγc (on DERL-7 cells, U2OS …)
# Assay: cell-based or functional assay
Binder,U2OS B/BG EC50 Fold Change,U2OS B/BG bridging cell assay EC50
B1,1.84 fold,0.294 nM
B2,3.09 fold,0.492 nM
B3,2.04 fold,0.325 nM
B4,2.83 fold,0.451 nM
B5,2.32 fold,0.37 nM
B6,3.15 fold,0.502 nM
B7,1.16 fold,0.185 nM
B8,3.15 fold,0.503 nM
B9,3.28 fold,0.522 nM
B10,2.53 fold,0.403 nM

# Target: T2, human IL-2Rβγc (on DERL-7 cells, U2OS …)
# Assay: cell-based or functional assay
# Remark: another data set of the same source
Binder,DERL7 EC50 Fold Change,DERL7 cell assay EC50
B1,0.65 fold,0.012 nM
B2,1.55 fold,0.028 nM
B3,1.46 fold,0.026 nM
B4,1.31 fold,0.023 nM
B5,1.18 fold,0.021 nM
B6,2.01 fold,0.036 nM
B7,0.71 fold,0.013 nM
B8,1.4 fold,0.025 nM
B9,2.14 fold,0.038 nM
B10,2.41 fold,0.043 nM

# Target: T2, human IL-2Rβγc (on DERL-7 cells, U2OS …)
# Assay: cell-based or functional assay
# Remark: another data set of the same source
row,Binder,U2OS-IL2Rbg EC50
1,B11,5.77 nM

# Target: T3, mouse IL-2Rαβγc (on CTLL2-STAT5 …)
# Assay: cell-based or functional assay
row,Binder,CTLL2-STAT5 EC50
1,B11,> 7 nM

# Target: T3, mouse IL-2Rαβγc (on CTLL2-STAT5 …)
# Assay: cell-based or functional assay
# Remark: another data set of the same source
Binder,STAT5-CTLL2 EC50,STAT5-CTLL2 EC50 Fold Change
B1,6.31 nM,699 fold
B2,2.2 nM,244 fold
B3,95.2 nM,10500 fold
B4,0.101 nM,11.2 fold
B5,11 nM,1220 fold
B6,103 nM,11400 fold
B7,12.7 nM,1400 fold
B8,98.5 nM,10900 fold
B9,0.129 nM,14.3 fold
B10,6.22 nM,689 fold

# Target: T4, Human IL-2Rβ (Table 7B)
# Assay: SPR (Biacore T200)
Binder,Kd,koff,kon
B1,980 nM,0.32 s⁻¹,330000 M⁻¹ s⁻¹
B2,990 nM,0.36 s⁻¹,360000 M⁻¹ s⁻¹
B3,860 nM,0.013 s⁻¹,–
B4,730 nM,0.25 s⁻¹,340000 M⁻¹ s⁻¹
B5,1000 nM,0.3 s⁻¹,300000 M⁻¹ s⁻¹
B12,770 nM,0.3 s⁻¹,390000 M⁻¹ s⁻¹
B6,1100 nM,0.47 s⁻¹,440000 M⁻¹ s⁻¹
B7,590 nM,0.24 s⁻¹,410000 M⁻¹ s⁻¹
B8,1000 nM,0.36 s⁻¹,350000 M⁻¹ s⁻¹
B9,1100 nM,0.082 s⁻¹,75000 M⁻¹ s⁻¹
B10,1900 nM,0.42 s⁻¹,220000 M⁻¹ s⁻¹
